US20220380454A1 (University of California, published 2022)

How the values were obtained:
[1] = biological target: T1, oligomeric Aβ42 (biotin-Aβ42 oligomers) (human, biotin (human biotin-beta-Amyloid (1-42), AnaSpec); position not stated); experiment: biotin-Aβ42 oligomers on transfected HEK293T cells, streptavidin staining
T1 construct: Mixture of oligomers prepared from human Aβ42 (24-26 h at 4 °C, supernatant); The number of copies per oligomer is therefore not fixed; also called Aβ oligomers; oligomerized Aβ

[2] = biological target: T1, oligomeric Aβ42 (biotin-Aβ42 oligomers); experiment: biotin-Aβ42 oligomers on transfected HEK293T cells, 488-conjugated streptavidin staining
Excerpt: Binding assay. HEK293 cells were transiently transfected (polyethylenimine) with expression vectors encoding TdTomato, Celsr3-Flag or control empty vectors (pCAGEN). […] DAPI was used to counterstain cell nuclei; TdTomato was used to monitor construct transfection. Anti-flag antibody was used to stain Celsr3. Fluorescent images were captured with Zeiss LSM 880 fast airyscan using a 63× oil-immersion objective.

Row | Binder | binding result [1] | binding result [2]
1 | mouse Ryk-HA (receptor, UniProt Q01887 35-594, looked up, whole, on cells; Expressed in HEK293T cells; not shown: HA tag) RSPALAAAPAGPSVSLYLSEDEVRRLLGLDAELYYVRNDLISHYALSFNLLVPSETNFLHFTWHAKSKVEYKLGFQVDNFVAMGMPQVNISAQGEVPRTLSVFRVELSCTGKVDSEVMILMQLNLTVNSSKNFTVLNFKRRKMCYKKLEEVKTSALDKNTSRTIYDPVHAAPTTSTRVFYISVGVCCAVIFLVAIILAVLHLHSMKRIELDDSISASSSSQGLSQPSTQTTQYLRADTPNNATPITSSSGYPTLRIEKNDLRSVTLLEAKAKVKDIAISRERITLKDVLQEGTFGRIFHGILVDEKDPNKEKQTFVKTVKDQASEVQVTMMLTESCKLRGLHHRNLLPITHVCIEEGEKPMVVLPYMNWGNLKLFLRQCKLVEANNPQAISQQDLVHMAIQIACGMSYLARREVIHRDLAARNCVIDDTLQVKITDNALSRDLFPMDYHCLGDNENRPVRWMALESLVNNEFSSASDVWAFGVTLWELMTLGQTPYVDIDPFEMAAYLKDGYRIAQPINCPDELFAVMACCWALDPEERPKFQQLVQCLTEFHAALGAYV | no binding (tested: 200 nM total peptide, monomer equivalent) | 
2 | Vangl2-Flag (other, not shown: small tags and cut ends) MDTESQYSGYSYKSGHSRSSRKHRDRRDRHRSKSRDGSRGDKSVTIQAPGEPLLDNESTRGDERDDNWGETTTVVTGTSEHSISHDDLTRIAKDMEDSVPLDCSRHLGVAAGAILALLSFLTPLAFLLLPPLLWREELEPCGTACEGLFISVAFKLLILLLGSWALFFRRPKASLPRVFVLRALLMVLVFLLVISYWLFYGVRILDARERSYQGVVQFAVSLVDALLFVHYLAVVLLELRQLQPQFTLKVVRSTDGASRFYNVGHLSIQRVAVWILEKYYHDFPVYNPALLNLPKSVLAKKVSGFKVYSLGEENSTNNSTGQSRAVIAAAARRRDNSHNEYYYEEAEHERRVRKRRARLVVAVEEAFTHIKRLQEEEQKNPREVMDPREAAQAIFASMARAMQKYLRTTKQQPYHTMESILQHLEFCITHDMTPKAFLERYLAAGPTIQYHKERWLAKQWTLVSEEPVTNGLKDGIVFLLKRQDFSLVVSTKKVPFFKLSEEFVDPKSHKFVMRLQSETSV |  | no binding (tested: 200 nM total peptide, monomer equivalent)
3 | Frizzled3-HA (receptor, not shown: small tags and cut ends, Expressed in transfected HEK293T cells; also called Fzd3-HA; HA-tagged Frizzled3) HSLFSCEPITLRMCQDLPYNTTFMPNLLNHYDQQTAALAMEPFHPMVNLDCSRDFRPFLCALYAPICMEYGRVTLPCRRLCQRAYSECSKLMEMFGVPWPEDMECSRFPDCDEPYPRLVDLNLVGDPTEGAPVAVQRDYGFWCPRELKIDPDLGYSFLHVRDCSPPCPNMYFRREELSFARYFIGLISIICLSATLFTFLTFLIDVTRFRYPERPIIFYAVCYMMVSLIFFIGFLLEDRVACNASSPAQYKASTVTQGSHNKACTMLFMVLYFFTMAGSVWWVILTITWFLAAVPKWGSEAIEKKALLFHASAWGIPGTLTIILLAMNKIEGDNISGVCFVGLYDVDALRYFVLAPLCLYVVVGVSLLLAGIISLNRVRIEIPLEKENQDKLVKFMIRIGVFSILYLVPLLVVIGCYFYEQAYRGIWETTWIQERCREYHIPCPYQVTQMSRPDLILFLMKYLMALIVGIPSIFWVGSKKTCFEWASFFHGRRKKEIVNESRQVLQEPDFAQSLLRDPNTPIIRKSRGTSTQGTSTHASSTQLAMVDDQRSKAGSVHSKVSSYHGSLHRSRDGRYTPCSYRGMEERLPHGSMSRLTDHSRHSSSHRLNEQSRHSSIRDLSNNPMTHITHGTSMNRVIEEDGTSA |  | no binding (tested: 200 nM total peptide, monomer equivalent)
4 | human Ryk-Flag (receptor, not shown: Flag tag) PPPLLLLLALLPLLPAPGAAAAPAPRPPELQSASAGPSVSLYLSEDEVRRLIGLDAELYYVRNDLISHYALSFSLLVPSETNFLHFTWHAKSKVEYKLGFQVDNVLAMDMPQVNISVQGEVPRTLSVFRVELSCTGKVDSEVMILMQLNLTVNSSKNFTVLNFKRRKMCYKKLEEVKTSALDKNTSRTIYDPVHAAPTTSTRVFYISVGVCCAVIFLVAIILAVLHLHSMKRIELDDSISASSSSQGLSQPSTQTTQYLRADTPNNATPITSSLGYPTLRIEKNDLRSVTLLEAKGKVKDIAISRERITLKDVLQEGTFGRIFHGILIDEKDPNKEKQAFVKTVKDQASEIQVTMMLTESCKLRGLHHRNLLPITHVCIEEGEKPMVILPYMNWGNLKLFLRQCKLVEANNPQAISQQDLVHMAIQIACGMSYLARREVIHKDLAARNCVIDDTLQVKITDNALSRDLFPMDYHCLGDNENRPVRWMALESLVNNEFSSASDVWAFGVTLWELMTLGQTPYVDIDPFEMAAYLKDGYRIAQPINCPDELFAVMACCWALDPEERPKFQQLVQCLTEFHAALGAYV | no binding (tested: 200 nM total peptide, monomer equivalent) | 
